Experimental data from publication PMC5627276.

How the values were obtained:
[1] = target: bRSV F 391-2 DS-Cav1 (bovine respiratory syncytial virus, strain 391-2 | bacteriophage T4); test: SEC; after nickel and Strep-Tactin affinity columns and cleavage of the C-terminal affinity tags; SEC in PBS
[2] = target: bRSV F 391-2 DS-Cav1 (bovine respiratory syncytial virus, strain 391-2 | bacteriophage T4); test: negative stain EM; about 0.01 mg/ml, 10 mM HEPES pH 7.0, 150 mM KCl, 0.75% uranyl formate; reference-free 2D class averaging
[3] = target: bRSV F ATue51908 DS-Cav1 (bovine respiratory syncytial virus, strain ATue51908 | bacteriophage T4); test: SEC; after nickel and Strep-Tactin affinity columns and cleavage of the C-terminal affinity tags; SEC in PBS
[4] = target: bRSV F ATue51908 DS-Cav1 (bovine respiratory syncytial virus, strain ATue51908 | bacteriophage T4); test: negative stain EM; about 0.01 mg/ml, 10 mM HEPES pH 7.0, 150 mM KCl, 0.75% uranyl formate; reference-free 2D class averaging
[5] = target: bRSV F DS2-v1 (391-2 sc9 DS-Cav1 Q98C Q361C) (bovine respiratory syncytial virus, strain 391-2 | bacteriophage T4); test: SEC; after nickel and Strep-Tactin affinity columns and cleavage of the C-terminal affinity tags; SEC in PBS
[6] = target: bRSV F DS2-v1 (391-2 sc9 DS-Cav1 Q98C Q361C) (bovine respiratory syncytial virus, strain 391-2 | bacteriophage T4); test: negative stain EM; about 0.01 mg/ml, 10 mM HEPES pH 7.0, 150 mM KCl, 0.75% uranyl formate; reference-free 2D class averaging
[7] = target: bRSV F DS2-v33 (391-2 sc9-10 DS-Cav1 Q98C Q361C) (bovine respiratory syncytial virus, strain 391-2 | bacteriophage T4); test: SEC; after nickel and Strep-Tactin affinity columns and cleavage of the C-terminal affinity tags; SEC in PBS
[8] = target: bRSV F DS2-v33 (391-2 sc9-10 DS-Cav1 Q98C Q361C) (bovine respiratory syncytial virus, strain 391-2 | bacteriophage T4); test: negative stain EM; about 0.01 mg/ml, 10 mM HEPES pH 7.0, 150 mM KCl, 0.75% uranyl formate; reference-free 2D class averaging
[9] = target: bRSV F DS2-v35 (ATue51908 sc9-10 DS-Cav1 A149C Y458C) (bovine respiratory syncytial virus, strain ATue51908 | bacteriophage T4); test: SEC; after nickel and Strep-Tactin affinity columns and cleavage of the C-terminal affinity tags; SEC in PBS
[10] = target: bRSV F DS2-v35 (ATue51908 sc9-10 DS-Cav1 A149C Y458C) (bovine respiratory syncytial virus, strain ATue51908 | bacteriophage T4); test: negative stain EM; about 0.01 mg/ml, 10 mM HEPES pH 7.0, 150 mM KCl, 0.75% uranyl formate; reference-free 2D class averaging
[11] = target: bRSV F RB94 DS-Cav1 (bovine respiratory syncytial virus, strain RB94 | bacteriophage T4); test: SEC; after nickel and Strep-Tactin affinity columns and cleavage of the C-terminal affinity tags; SEC in PBS
[12] = target: bRSV F RB94 DS-Cav1 (bovine respiratory syncytial virus, strain RB94 | bacteriophage T4); test: negative stain EM; about 0.01 mg/ml, 10 mM HEPES pH 7.0, 150 mM KCl, 0.75% uranyl formate; reference-free 2D class averaging

“bRSV F 391-2 DS-Cav1 (domain or fragment)” showed a stoichiometry N [1] of 3 and a stoichiometry N [2] of 3.

“bRSV F ATue51908 DS-Cav1 (domain or fragment)” gave a stoichiometry N [3] of 3 and a stoichiometry N [4] of 3.

“bRSV F DS2-v1 (391-2 sc9 DS-Cav1 Q98C Q361C) (domain or fragment)” showed a stoichiometry N [5] of 3 and a stoichiometry N [6] of 3.

Substance “bRSV F DS2-v33 (391-2 sc9-10 DS-Cav1 Q98C Q361C) (domain or fragment)” has a stoichiometry N [7] of 3 and a stoichiometry N [8] of 3.

“bRSV F DS2-v35 (ATue51908 sc9-10 DS-Cav1 A149C Y458C) (domain or fragment)” gave a stoichiometry N [9] of 3 and a stoichiometry N [10] of 3.

Substance “bRSV F RB94 DS-Cav1 (domain or fragment)” has a stoichiometry N [11] of 3 and a stoichiometry N [12] of 3.
